Measured values as given in patent publication US8022177B2, “Peptides and calcium regulation in mammalian cells” (The Board of Trustees of the University of Illinois, priority 2005, dated 2011).
Values joined by “and” are separate entries in the source; they are usually repeats but may differ in a detail not shown here. Equal values may be shown once.

B1: γ6L: rat calcium channel γ6 subunit, long isoform (AF361343), SEQ ID NO:48 (protein, listed as Rattus norvegicus)
chain: MMWSNFFMQEEDRRRTAVGRRRAQEQQNLGLTPEREGKIKLGLLVAIVGATLAVLAVGTEFWVELNTYKTNGSAVCEAAHLGLWKVCIKRLWQADVPAGRETCGPAELPGEANCTYFKFFTTGENAHIFQRTTKKEVNLAAAVIAVLGLTAMALGCLCVIMVLSKGAEFLLRLGAVCFGLSGLLLFVSLEVFRHSVRALLQGVNPETPPAPRLAYEYSWSLGCGVGAGLILLLGGVCFLLLTLPSWPWRSLCPKRGGPTA
B2: γ4: rat calcium channel γ4 subunit (AF361341), SEQ ID NO:47 (protein, listed as Rattus norvegicus)
chain: MVRCDRGLQMLLTTAGAFAAFSLMAIAIGTDYWLYSSAHICNGTNLTMDDGPPPRRARGDLTHSGLWRVCCIEGIYKGHCFRINHFPEDNDYDHDSSEYLLRIVRASSVFPILSTILLLLGGLCIGAGRIYSRKNNIVLSAGILFVAAGLSNIIGIIVYISSNTGDPSDKRDEDKKNHYNYGWSFYFGALSFIVAETVGVLAVNIYIEKNKELRFKTKREFLKASSSSPYSRMPSYRYRRRRSRSSSRSTEASPSRDASPVGLKITGAIPMGELSMYTLSREPLKVTTAASYSPDQDAGFLQMHDFFQQDLKEGFHVSMLNRRTTPV

How the values were obtained:
Assay type in all cases: cell-based
Cav3.1 = molecular target: T1, Cav3.1 (Homo sapiens, UniProt O43497); assay: Whole-cell patch clamp of Cav3.1 current in Cav3.1-HEK cells transfected with γ6, γ4, their first transmembrane domains or point mutants (Example 3); parameters: Activation K / Inactivation K: unit not given here; conditions: for Peak current density: Cav3.1-HEK cells, control 48.43±2.62; for Calcium current density (unit not given): Example 2, control −48.39+/−2.6, fusion series control −46.9+/−5; for Normalized Current Density: relative to vector control (100.0%), Table 3.3
T1 construct: expressed in transfected cells; host or cells: HEK-293, stably transfected
Description: Transfection. HEK-293 cells stably transfected with the Cav3.1 α1 subunit were transiently transfected with vectors containing GFP and γ subunits cDNA when the cultures reached 50% confluency. Lipofectamine 2000 reagent (Invitrogen) was used following manufacturer's protocol.
Electrophysiology. Whole cell Ca2+ currents were recorded at room temperature using an Axon Instruments Axopatch-1D amplifier, a Digidata 1200 interface and pClamp8.0 software about 48 hours after transfection. Cell capacitance was typically around 10 pF, but ranged from 5-40 pF. Recording micropipettes were made from borosilicate glass (2-3 Mohms tip resistance), and filled with solution contained (in mM) 130 NaCl, 10 EGTA, 2 MgCl2, 1 CaCl2, 10 HEPES, 3 Tris-ATP, and 0.3 Li2GTP or 0.3 Tris-GTP. Tyrode's solution was used as the bath solution. It contained (in mM) 137 NaCl, 1 KCl, 1 MgCl2, 0.33 NaH2PO4, 2 CaCl2, 10 HEPES. Both solutions were adjusted to pH 7.4 with NaOH and 280 mOsm with sucrose.
We determined the biophysical characteristics of Cav3.1 currents in transfected HEK-293 cells and effects of the first transmembrane domain of γ4 and γ6 on these properties. Test parameters were optimized for studying Cav3.1 current. The time constant (τ) of deactivation (τdeac) was obtained by single exponential fitting of tail currents. For Cav3.1 currents, the cells were clamped at a holding potential of −100 mV, then depolarized to −20 mV for 4 msec, and repolarized to various voltages from −120 mV to −60 mV at 10 mV interval for 150 msec to elicit tail currents.
The voltage dependence of activation was measured using tail currents. For Cav3.1 currents, the cells were clamped at a holding potential equal to −100 mV, and then depolarized briefly to a conditioning potential, varying from −90 mV to +60 mV, and finally clamped at −60 mV before inactivation. Using this protocol, all tail currents are elicited at the same driving force (at −60 mV), so the current amplitude accurately reflects the number of channels opened during the different conditioning potentials.
A series of conditioning prepulses of 500 msec were used to measure voltage dependence of inactivation in our experiments. Channels initially open and then reach steady-state inactivation during the 500 msec long prepulses. The membrane potential is stepped to a fixed test potential of −20 mV, where maximal peak current is elicited. Currents elicited at each test potential reflect how many channels are not in the inactivated state after a steady-state inactivation; that is, how many channels are available to open. The conditioning prepulse potentials were changed from −120 mV to 50 mV, and the test potential is fixed at −20 mV.
Data collection and analysis. To probe the structural features necessary for the function of γ subunits, we are using HEK-293 cell line stably transfected with Cav3.1 α1 subunit. These cells are then transiently transfected with vectors containing various chimeric, truncated or mutant gamma subunits. […] There is inherent variation in calcium current density in the HEK-Cav3.1 stable cell line likely due to differences in the batch used, passenger number, extent of cellular confluence, or for other unknown reasons. The averaged current density of each test group of cells was normalized to the mean current density of a parallel control group of cells plated from the same batch of cells and analyzed on the same day. A minimum of 5 cells (typically 7 to 10) from each group was used to calculate the mean behavior of test and control cells from each days recording. At least two independent transfections were performed for each test condition. Overall, averages were obtained from 21 control groups of cells that had been transfected with empty vector over several months. The data are pooled together to reduce the variance. […] The current density of the control cells over many months justified the pooling of data recorded from different batches of cells transfected with mutated γ subunits. […]

Cav3.2 = molecular target: T2, Cav3.2 (Homo sapiens, UniProt O95180); assay: Calcium current density in heterologous expression system, Cav3.2; conditions: heterologous expression systems
T2 construct: expressed in transfected cells; host or cells: heterologous expression system (HEK-293 stably transfected with Cav3.2 is mentioned)

Cav2.3 = molecular target: T3, Cav2.3 (Homo sapiens, UniProt Q15878); assay: Calcium current density in heterologous expression system, Cav2.3; conditions: heterologous expression systems
T3 construct: expressed in transfected cells

T1 sequence (O43497 whole entry, the tested form may be a part): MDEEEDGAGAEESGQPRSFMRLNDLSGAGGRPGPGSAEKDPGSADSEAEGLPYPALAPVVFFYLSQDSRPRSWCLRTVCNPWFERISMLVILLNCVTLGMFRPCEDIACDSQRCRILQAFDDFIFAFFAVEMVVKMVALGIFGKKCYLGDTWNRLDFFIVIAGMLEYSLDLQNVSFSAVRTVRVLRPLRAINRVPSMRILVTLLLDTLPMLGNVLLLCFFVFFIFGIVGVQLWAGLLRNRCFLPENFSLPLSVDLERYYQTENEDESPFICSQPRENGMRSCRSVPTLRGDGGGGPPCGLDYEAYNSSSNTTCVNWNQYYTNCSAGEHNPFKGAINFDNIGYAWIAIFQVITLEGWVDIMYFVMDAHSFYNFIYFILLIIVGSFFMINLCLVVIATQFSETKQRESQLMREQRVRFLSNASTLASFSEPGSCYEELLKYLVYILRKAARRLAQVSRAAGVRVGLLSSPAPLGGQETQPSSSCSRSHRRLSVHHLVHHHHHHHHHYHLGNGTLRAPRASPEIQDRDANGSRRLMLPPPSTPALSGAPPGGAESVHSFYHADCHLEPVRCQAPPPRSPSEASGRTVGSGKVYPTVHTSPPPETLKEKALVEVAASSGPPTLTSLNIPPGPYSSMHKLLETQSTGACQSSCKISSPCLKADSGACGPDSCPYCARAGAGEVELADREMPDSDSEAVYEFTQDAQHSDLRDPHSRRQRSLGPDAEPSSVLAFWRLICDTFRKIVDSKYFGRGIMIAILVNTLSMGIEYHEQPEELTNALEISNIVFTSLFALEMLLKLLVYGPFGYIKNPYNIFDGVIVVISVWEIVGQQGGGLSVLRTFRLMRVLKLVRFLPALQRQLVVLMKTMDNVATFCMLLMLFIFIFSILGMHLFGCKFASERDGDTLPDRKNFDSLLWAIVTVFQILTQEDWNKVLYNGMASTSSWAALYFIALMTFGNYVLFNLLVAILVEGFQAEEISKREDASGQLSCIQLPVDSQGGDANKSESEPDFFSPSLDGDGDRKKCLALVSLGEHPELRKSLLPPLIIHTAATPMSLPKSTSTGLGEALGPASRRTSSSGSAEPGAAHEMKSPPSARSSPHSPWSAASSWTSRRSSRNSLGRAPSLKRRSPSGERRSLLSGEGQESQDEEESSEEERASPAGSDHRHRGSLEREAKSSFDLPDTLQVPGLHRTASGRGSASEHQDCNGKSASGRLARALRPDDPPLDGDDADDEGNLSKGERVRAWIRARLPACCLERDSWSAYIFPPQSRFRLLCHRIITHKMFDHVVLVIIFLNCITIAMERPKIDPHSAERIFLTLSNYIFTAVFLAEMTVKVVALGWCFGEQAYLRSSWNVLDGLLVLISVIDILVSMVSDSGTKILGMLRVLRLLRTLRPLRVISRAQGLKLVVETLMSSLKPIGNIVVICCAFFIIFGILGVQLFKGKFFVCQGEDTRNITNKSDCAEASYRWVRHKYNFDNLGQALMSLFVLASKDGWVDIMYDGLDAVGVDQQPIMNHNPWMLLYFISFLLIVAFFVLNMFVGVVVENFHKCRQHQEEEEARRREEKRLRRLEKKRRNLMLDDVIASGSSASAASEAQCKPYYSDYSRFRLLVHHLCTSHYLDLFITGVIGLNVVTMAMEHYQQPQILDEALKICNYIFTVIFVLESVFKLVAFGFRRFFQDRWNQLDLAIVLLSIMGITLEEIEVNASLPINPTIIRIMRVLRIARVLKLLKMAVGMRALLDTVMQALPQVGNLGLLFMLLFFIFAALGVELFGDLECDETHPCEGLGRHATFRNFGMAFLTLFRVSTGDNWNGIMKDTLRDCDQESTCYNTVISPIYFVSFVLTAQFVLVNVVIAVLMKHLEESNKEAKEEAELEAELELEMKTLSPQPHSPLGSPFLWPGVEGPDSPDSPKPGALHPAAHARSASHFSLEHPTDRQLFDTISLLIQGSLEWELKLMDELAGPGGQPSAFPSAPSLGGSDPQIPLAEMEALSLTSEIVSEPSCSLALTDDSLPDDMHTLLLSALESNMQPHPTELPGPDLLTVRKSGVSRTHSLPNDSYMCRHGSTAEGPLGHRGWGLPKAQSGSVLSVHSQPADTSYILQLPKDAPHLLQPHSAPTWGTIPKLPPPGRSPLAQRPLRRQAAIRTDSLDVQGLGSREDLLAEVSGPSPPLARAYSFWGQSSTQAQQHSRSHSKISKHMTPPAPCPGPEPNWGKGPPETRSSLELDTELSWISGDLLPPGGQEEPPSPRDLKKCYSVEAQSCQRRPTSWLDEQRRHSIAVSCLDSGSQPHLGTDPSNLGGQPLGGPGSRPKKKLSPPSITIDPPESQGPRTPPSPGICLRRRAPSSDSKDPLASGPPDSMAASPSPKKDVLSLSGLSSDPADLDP
T2 sequence (O95180 whole entry): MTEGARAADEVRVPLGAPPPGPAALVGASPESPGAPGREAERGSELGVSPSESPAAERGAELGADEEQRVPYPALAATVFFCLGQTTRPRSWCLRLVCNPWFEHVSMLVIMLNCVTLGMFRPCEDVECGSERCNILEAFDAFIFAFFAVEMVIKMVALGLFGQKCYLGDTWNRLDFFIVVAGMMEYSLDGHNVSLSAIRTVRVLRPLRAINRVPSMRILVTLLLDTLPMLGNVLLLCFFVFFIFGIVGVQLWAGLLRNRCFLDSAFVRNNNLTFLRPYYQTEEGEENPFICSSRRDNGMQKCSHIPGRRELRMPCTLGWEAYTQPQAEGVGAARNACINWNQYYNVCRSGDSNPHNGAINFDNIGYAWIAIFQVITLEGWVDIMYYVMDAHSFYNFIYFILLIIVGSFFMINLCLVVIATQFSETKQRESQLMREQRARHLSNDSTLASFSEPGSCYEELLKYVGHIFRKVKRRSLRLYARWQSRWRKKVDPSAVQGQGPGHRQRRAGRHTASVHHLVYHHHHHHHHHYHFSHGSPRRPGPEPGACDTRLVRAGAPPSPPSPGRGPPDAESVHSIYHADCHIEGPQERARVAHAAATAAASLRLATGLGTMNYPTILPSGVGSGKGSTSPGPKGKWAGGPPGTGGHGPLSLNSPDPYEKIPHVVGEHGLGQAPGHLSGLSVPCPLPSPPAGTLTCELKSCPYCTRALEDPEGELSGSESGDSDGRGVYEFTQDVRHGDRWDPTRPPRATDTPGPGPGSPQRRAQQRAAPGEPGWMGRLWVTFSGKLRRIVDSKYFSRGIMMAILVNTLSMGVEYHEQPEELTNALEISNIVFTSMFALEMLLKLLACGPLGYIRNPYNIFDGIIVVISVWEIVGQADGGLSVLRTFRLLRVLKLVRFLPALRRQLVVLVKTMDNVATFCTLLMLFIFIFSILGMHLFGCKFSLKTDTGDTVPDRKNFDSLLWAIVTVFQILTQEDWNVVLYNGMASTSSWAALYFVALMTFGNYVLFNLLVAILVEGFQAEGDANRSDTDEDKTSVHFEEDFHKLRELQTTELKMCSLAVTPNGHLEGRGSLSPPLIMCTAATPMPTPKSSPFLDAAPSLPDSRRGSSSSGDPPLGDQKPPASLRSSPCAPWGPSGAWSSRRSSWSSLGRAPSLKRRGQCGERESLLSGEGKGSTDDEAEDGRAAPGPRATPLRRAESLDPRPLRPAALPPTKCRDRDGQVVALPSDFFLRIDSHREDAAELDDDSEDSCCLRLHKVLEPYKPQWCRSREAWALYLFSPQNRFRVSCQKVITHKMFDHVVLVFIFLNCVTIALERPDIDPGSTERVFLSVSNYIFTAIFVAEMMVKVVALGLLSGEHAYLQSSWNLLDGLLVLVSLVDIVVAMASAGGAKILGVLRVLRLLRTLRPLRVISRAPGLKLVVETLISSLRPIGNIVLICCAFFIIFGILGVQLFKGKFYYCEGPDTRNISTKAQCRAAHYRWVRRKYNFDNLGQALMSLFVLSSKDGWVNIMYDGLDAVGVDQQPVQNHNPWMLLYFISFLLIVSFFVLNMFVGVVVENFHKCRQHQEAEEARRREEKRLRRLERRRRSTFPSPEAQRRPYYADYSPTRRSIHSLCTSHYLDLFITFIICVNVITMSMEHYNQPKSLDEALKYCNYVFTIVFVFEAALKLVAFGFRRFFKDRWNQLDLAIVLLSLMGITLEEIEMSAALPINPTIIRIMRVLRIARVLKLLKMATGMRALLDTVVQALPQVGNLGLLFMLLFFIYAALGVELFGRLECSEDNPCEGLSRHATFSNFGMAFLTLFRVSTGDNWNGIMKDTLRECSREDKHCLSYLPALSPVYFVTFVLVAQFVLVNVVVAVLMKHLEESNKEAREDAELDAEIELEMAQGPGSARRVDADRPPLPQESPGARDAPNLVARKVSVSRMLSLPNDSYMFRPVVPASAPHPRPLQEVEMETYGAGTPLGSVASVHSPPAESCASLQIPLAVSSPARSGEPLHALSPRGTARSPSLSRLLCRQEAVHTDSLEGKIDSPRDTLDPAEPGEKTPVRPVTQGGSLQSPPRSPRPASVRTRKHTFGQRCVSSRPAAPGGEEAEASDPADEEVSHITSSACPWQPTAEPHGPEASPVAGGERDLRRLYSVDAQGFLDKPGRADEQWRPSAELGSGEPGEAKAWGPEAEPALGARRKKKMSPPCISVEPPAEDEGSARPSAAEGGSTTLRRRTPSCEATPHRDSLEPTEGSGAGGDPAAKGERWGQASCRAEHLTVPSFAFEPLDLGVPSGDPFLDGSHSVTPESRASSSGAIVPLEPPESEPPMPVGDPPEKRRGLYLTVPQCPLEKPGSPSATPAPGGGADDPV

Row | Molecule | Peak current density (Cav3.1) [pA/pF] | Calcium current density (unit not given) (Cav3.1) | Decrease of peak current density from control (Cav3.1; TM1 series, vs blank vector) [%] | Activation K (Cav3.1; Table 3.2) | Activation V½ (Cav3.1; Table 3.2) [mV] | Deactivation τ @−100 mV (Cav3.1; Table 3.2) [ms] | Inactivation K (Cav3.1; Table 3.2) | Inactivation V½ (Cav3.1; Table 3.2) [mV] | Inactivation τ @−20 mV (Cav3.1; Table 3.2) [ms] | Time to peak @−25 mV (Cav3.1; Table 3.2) | Averaged peak current (Cav3.1; group transfected with γ6, n=10) [pA] | Decrease of Cav3.1 peak current density from control (Cav3.1; mutant series, control 100%±4.4%) [%] | Normalized Current Density (Cav3.1; listed as γ6) | Effect on Cav3.2 calcium current density (Cav3.2) | Effect on Cav2.3 calcium current density (Cav2.3) | Activation V peak (Cav3.1; Table 3.2) [mV] | Normalized Current Density (Cav3.1)
1 | B1 | 27.85±3.32 | −7.8+/−3.3 | 42 | 11.99 ± 1.39 | −28.12 ± 4.07 | 2.22 ± 0.19 | −5.42 ± 0.34 | −67.53 ± 4.81 | 23.9 ± 1.6 | 9.03 ± 0.57 | −344.2±48.4 | 45 | 55.4%±5.7% and 55.4% | decreased | decreased | – | –
2 | B2 | 48.28±3.30 | −56.3+/−5 | – | 12.83 ± 0.79 | −31.62 ± 3.24 | 2.20 ± 0.11 | −6.04 ± 0.24 | −67.77 ± 1.86 | 27.3 ± 1.4 | 8.37 ± 0.39 | – | – | – | – | – | −29.44±1.89 | 116.02%±11.4% and 116.0%
